# Assay results reported in patent US8926955B2, “Synthesis of polymer conjugates of indolocarbazole compounds” (priority 2008, dated 2015).
# Entries after “also recorded” stand apart in the source; their conditions may differ.
# Legend:
# [1] = tested on: mouse lymphoma L5178Y cells; test: Preliminary cytotoxicity assay in L5178Y cells; assay type: cell-based
# Experimental: A preliminary cytotoxicity assay was performed. Based on the solubility results, the test item was assayed at a maximum dose level of 5000 μg/ml both in the absence and presence of S9 metabolism. A wide range of lower dose levels were included in the treatment series: 2500, 1250, 625, 313, 156, 78.1, 39.1 and 19.5 μg/ml.
# [2] = tested on: Salmonella typhimurium TA1537, TA98 and TA100; test: Photomutagenicity assay in bacteria (reverse mutation, UV light); assay type: cell-based; settings: up to 5000 μg/plate
# Description: (§1) The test item was examined for photomutagenic activity by assaying for reverse mutation to prototrophy in the prokaryotic organisms, Salmonella typhimurium and Escherichia coli, after exposure to light.
# (§2) The three S. typhimurium tester strains, TA1537, TA98 and TA100, and the E. coli tester strain, WP2, were used. The bacteria, co-plated with the test item in soft-agar, were irradiated with various doses of UV light.
# (§3) The procedures adopted were developed by Ames et al., 1975 and revised by Maron and Ames, 1983.
# (§4) The test item was used as a solution in sterile distilled water.
# (§5) The test item was assayed in the toxicity test at a maximum dose level of 5000 μg/plate and at four lower concentrations spaced at approximately half-log intervals: 1580, 500, 158 and 50.0 μg/plate. Two widely-spaced UV doses were selected for each bacterial tester strain on the basis of the maximum tolerated dose.
# (§6) Two independent experiments were performed using the plate incorporation method.
# (§7) The test item was assayed at a maximum dose level of 5000 μg/plate and at four lower dose levels spaced by two-fold dilutions: 2500, 1250, 625 and 313 μg/plate. The prepared plates were exposed to the following UVA and UVB doses (Table 5): […]
# Escherichia coli WP2 = test: as above; assay type: cell-based; settings: up to 5000 μg/plate
# Description: as §1, §2, §3, §4, §5, §6, §7
# [3] = Solubility in RPMI 1640 complete medium; assay type: physicochemical
# [4] = tested on: New Zealand White Specific Pathogen Free (SPF) rabbits; settings: rabbit, in vivo
# Experimental: (§8) Three groups, each of 6 male and 6 female New Zealand White Specific Pathogen Free (SPF) rabbits (cf. Table 3: male numbered with even numbers, female numbered with uneven numbers), received the test item by dermal application at dosages of 0.5, 2.5 and 5 mg/animal/day for 13 consecutive weeks (Table 3, group numbers 2-4, respectively). A fourth similarly constituted group received the vehicle alone (purified water) and acted as a control (Table 3, group number 1). Control and high dose groups (Table 3, group numbers 4 and 1, respectively). included 3 additional animals per sex for recovery assessment.
# (§9) The following investigations were performed: daily clinical signs, body weight, food consumption, macroscopic observations of the treatment sites, clinical pathology investigations, terminal body weight, organ weight, post mortem macroscopic observations and histopathological examination.
# (§10) The treatment sites were examined, each day, approximately 3 hours after the start of dosing. Irritation of the sites, when compared to the adjacent untreated skin, was assigned a numerical value according to the table below:
# [5] = Toxicokinetics (plasma levels) in 13 week dermal rat study
# Experimental: (§11) The purpose of this study was to evaluate the toxicity of the test item in rats after daily dermal administration (6 hours exposure) over a period of 13 weeks and to investigate possible recovery from any potential treatment-related effects over a period of 4 consecutive weeks. The toxicokinetic profile was also evaluated.
# (§12) Three groups, each of 10 male and 10 female Sprague Dawley rats (cf. Table 1: male numbered with even numbers, female numbered with uneven numbers) received the test item by dermal application at dosages of 0.5, 2.5 and 5 mg/kg/day for 13 consecutive weeks (Table 1: group numbers 2-4). A fourth similarly constituted group received the vehicle alone (purified water) and acted as a control (Table 1: group number 1). Five additional animals for each sex were included in the high and control groups (Table 1: group numbers 4 and 1, respectively) for recovery assessment. In addition, 3 satellite groups for toxicokinetics, including 9 males and 9 females (Table 2: group numbers 5-8, respectively), and 1 control group, including 3 males and 3 females (Table 2: group number 5), were treated as the main groups for toxicokinetic evaluations.
# [6] = Toxicokinetics (plasma levels) in 13 week dermal rabbit study; assay type: in vivo
# Description: Blood samples were taken from each animal on Day 1 and Week 13 for toxicokinetic evaluations.
# TrkA = TrkA (Homo sapiens, UniProt P04629); test: Off-chip Mobility Shift Assay, IC50 against TrkA kinase; assay type: biochemical; settings: ATP 75 μM, CSKtide 1000 nM
# Experimental: The test compound was dissolved in dimethylsulfoxide (DMSO) and then the solution was further 25-fold diluted with assay buffer to make the final test compound solution. The conjugate was tested at the following concentrations: 30000 nM, 10000 nM, 3000 nM, 1000 nM, 300 nM, 100 nM, 30 nM, 10 nM, 3 nM and 1 nM.
# The assay procedure is represented by an Off-chip Mobility Shift Assay (MSA) and is reported below:
# IC50 value was calculated from concentration vs. % inhibition curves by fitting to a four parameter logistic curve.
# Sprague Dawley rats [7] = test: 13 week dermal toxicity study in rats with 4 week recovery
# Experimental: The purpose of this study was to evaluate the toxicity of the test item in rats after daily dermal administration (6 hours exposure) over a period of 13 weeks and to investigate possible recovery from any potential treatment-related effects over a period of 4 consecutive weeks.
# Three groups, each of 10 male and 10 female Sprague Dawley rats (cf. Table 1: male numbered with even numbers, female numbered with uneven numbers) received the test item by dermal application at dosages of 0.5, 2.5 and 5 mg/kg/day for 13 consecutive weeks (Table 1: group numbers 2-4). A fourth similarly constituted group received the vehicle alone (purified water) and acted as a control (Table 1: group number 1). Five additional animals for each sex were included in the high and control groups (Table 1: group numbers 4 and 1, respectively) for recovery assessment.
# The treatment sites were examined each day, approximately 3 hours after the start of dosing. Irritation of the sites, when compared to the adjacent untreated skin, was assigned a numerical value according to the table below:
# Sprague Dawley rats [8] = test: Acute intravenous toxicity study in rats; assay type: in vivo, rat
# Experimental: The acute toxicity of the conjugate of Example 3 was investigated after intravenous administration (10 ml/kg in physiological saline) of a single dose to Sprague Dawley rats followed by a 14-day observation period.
# A single group of 5 male and 5 female animals was dosed at 2000 mg/kg. Animals were dosed with the formulated test item at the selected level, just after its preparation, by injection into the tail vein using a hypodermic needle attached to a syringe of suitable capacity, at a dose volume of 10 ml/kg body weight. Throughout the study, all animals were checked twice daily.
# Animals were examined for signs of reaction to treatment on dosing, approximately 30 min, 2 and 4 hours after dosing on day 1, then daily for a total of 14 days. Each animal was weighed on the day of allocation to study, on the day of dosing (day 1) and on days 2, 8 and 15. All animals were killed at the end of the observation period and subjected to necropsy examination.
# [9] = tested on: New Zealand White Specific Pathogen Free (SPF) rabbits; test: 13 week dermal toxicity study in rabbits with 4 week recovery
# Experimental: as §8, §9, §10
# [10] = rat, in vivo
# Experimental: as §11, §12
# [11] = daily dermal administration over 13 weeks
# [12] = 0.5, 2.5 and 5 mg/kg/day dermal, 13 weeks
# [13] = 0.5, 2.5 and 5 mg/animal/day dermal, 13 weeks
# Chain of TrkA (P04629 33-796): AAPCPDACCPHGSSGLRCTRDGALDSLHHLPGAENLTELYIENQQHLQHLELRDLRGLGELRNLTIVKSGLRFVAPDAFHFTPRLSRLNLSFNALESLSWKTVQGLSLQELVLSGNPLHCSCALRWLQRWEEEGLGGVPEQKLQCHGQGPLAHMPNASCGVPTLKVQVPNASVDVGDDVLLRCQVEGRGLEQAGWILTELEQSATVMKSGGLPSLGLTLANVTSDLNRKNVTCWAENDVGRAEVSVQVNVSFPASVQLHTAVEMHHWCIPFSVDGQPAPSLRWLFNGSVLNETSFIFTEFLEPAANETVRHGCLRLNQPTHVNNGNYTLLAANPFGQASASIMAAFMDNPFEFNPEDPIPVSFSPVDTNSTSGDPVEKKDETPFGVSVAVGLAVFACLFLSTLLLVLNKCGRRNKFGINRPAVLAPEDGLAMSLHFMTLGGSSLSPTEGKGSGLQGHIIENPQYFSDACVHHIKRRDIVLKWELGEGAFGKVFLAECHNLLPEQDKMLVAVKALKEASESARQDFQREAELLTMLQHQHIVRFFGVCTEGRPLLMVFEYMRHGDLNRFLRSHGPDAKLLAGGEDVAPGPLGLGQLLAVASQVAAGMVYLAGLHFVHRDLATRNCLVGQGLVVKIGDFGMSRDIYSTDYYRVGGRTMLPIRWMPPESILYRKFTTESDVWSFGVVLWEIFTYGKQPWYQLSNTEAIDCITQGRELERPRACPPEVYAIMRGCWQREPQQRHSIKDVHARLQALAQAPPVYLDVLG
substance,measurement,setting,value
oxazolidindionic conjugate of K252a with PEG (1892 MW) [test item],relative survival,"[1]; absence of S9, long treatment time, two higher concentrations, % of concurrent negative control",approximately 60%
same,relative survival,"[1]; absence of S9, short treatment time, several concentrations, no dose relationship",slight reduction of relative survival
same,toxicity,"[1]; presence of S9, up to 5000 μg/ml",no relevant toxicity was observed
same,reverse mutation (revertant colonies) in the presence of UV light,[2]; UVA,did not induce two-fold increases in the number of revertant colonies; also recorded: does not induce reverse mutation
same,toxicity,[2]; any UV irradiation dose,No relevant toxicity was observed
same,reverse mutation (revertant colonies) in the presence of UV light,Escherichia coli WP2; UVA and UVB,did not induce two-fold increases in the number of revertant colonies; also recorded: does not induce reverse mutation
same,toxicity,Escherichia coli WP2; any UV irradiation dose,No relevant toxicity was observed
same,solubility,[3],≥ 50.0 mg/mL
same,macroscopic and microscopic observations,[4],no treatment-related changes were noted
same,accumulation,[5]; [11],no accumulation has occurred
same,absorption through the dermal route,[5]; rat plasma sample analyses,only minimally absorbed
same,accumulation,[6]; [11],no accumulation occurred
same,absorption through the dermal route,[6]; rabbit plasma sample analyses,only minimally absorbed
same,absorption,"[6]; week 13, dermal",Very low absorption
same,IC50,TrkA,202 nM
same,adverse effects,"Sprague Dawley rats [7]; 0.5, 2.5 and 5 mg/kg/day",No adverse effects were seen at any of the dose levels
same,body weight,Sprague Dawley rats [7]; [12],No relevant differences in body weight were recorded
same,clinical signs,Sprague Dawley rats [7]; [12],no treatment-related clinical signs were observed
same,food consumption,Sprague Dawley rats [7]; [12],comparable to controls
same,mortality,Sprague Dawley rats [7]; [12],No treatment-related mortality occurred
same,absolute and relative organ weights,Sprague Dawley rats [7]; 13 weeks dermal,No changes in absolute and relative organ weights of toxicological significance were observed
same,clinical chemistry and urinalysis,Sprague Dawley rats [7]; 13 weeks dermal,No changes of toxicological significance were observed
same,macroscopic and microscopic observations,Sprague Dawley rats [7]; 13 weeks dermal,No treatment-related changes were noted
same,terminal body weight,Sprague Dawley rats [7]; 13 weeks dermal,comparable between control and treated groups
same,No Observed Adverse Effect Level (NOAEL),"Sprague Dawley rats [7]; daily dermal administration to rats, 13 weeks",5 mg/kg/day
same,ophthalmic examination,Sprague Dawley rats [7]; end of the treatment period,No treatment-related lesions were detected
same,irritation index at treated sites,"Sprague Dawley rats [7]; erythema/oedema score 0-4, daily dermal, 13 weeks",0
same,haematology,Sprague Dawley rats [7]; partial reversibility at end of recovery period,leucopenia observed in animals of high dose group and in females of medium dose group
same,internal abnormalities at necropsy,Sprague Dawley rats [8]; 2000 mg/kg i.v.,No internal abnormalities were detected
same,clinical signs,"Sprague Dawley rats [8]; 2000 mg/kg i.v., all animals on the day of dosing",reduced activity and piloerection
same,changes in body weight,"Sprague Dawley rats [8]; 2000 mg/kg i.v., end of study",within the expected range
same,abnormalities at the injection site,"Sprague Dawley rats [8]; 2000 mg/kg i.v., tail vein",No abnormalities were observed at the injection site
same,mortality,"Sprague Dawley rats [8]; 2000 mg/kg single intravenous dose, 14-day observation",No mortality occurred
same,local tolerance,Sprague Dawley rats [8]; injected into the tail vein at 2000 mg/kg,locally tolerated
same,toxic effect,Sprague Dawley rats [8]; single intravenous administration at 2000 mg/kg body weight,no toxic effect
same,adverse effects,"[9]; 0.5, 2.5 and 5 mg/animal/day",No adverse effects were seen at any of the dose levels
same,clinical signs,[9]; [13],no treatment-related clinical signs were observed
same,mortality,[9]; [13],No treatment-related mortality occurred
same,absolute and relative organ weight,[9]; 13 weeks dermal,no changes in absolute and relative organ weight of toxicological significance were observed
same,body weight,[9]; 13 weeks dermal,No relevant differences in body weight were recorded
same,food consumption,[9]; 13 weeks dermal,comparable to controls
same,haematology and clinical chemistry,[9]; 13 weeks dermal,no changes of toxicological significance were recorded
same,terminal body weight,[9]; 13 weeks dermal,comparable between control and treated groups
same,No Observed Adverse Effect Level (NOAEL),"[9]; daily dermal administration to rabbits, 13 weeks",5 mg/animal/day
same,irritation of treated sites (macroscopic observations),"[9]; daily dermal, 13 weeks",No signs of irritation were observed
same,ophthalmic examination,[9]; end of the treatment period,no treatment-related lesions were detected
same,plasma levels / incidence of absorption,[10],a lower incidence of absorption was detected
